The values that follow are results of earlier work, collected in US6368617B1, “Dietary supplement” (Reliv' International, Inc., priority 2001, dated 2002).

Read-outs that look alike come from different tables or passages of the source.

“Growth Hormone: endocrine hormone produced by the pituitary, also known as somatotropin”: the half-life result (circulating) is given as “about 20 minutes”.
Regarding “IGF-1: growth-promoting metabolite of hGH, somatomedin C, commercially known as Insulin-like Growth Factor type 1”, under “serum”, the half-life entry is reported as “about 20 hours”.
